T1: human ACKR2 (human, UniProt O00590 1-384)
T1 construct: whole, on cells; transiently expressed on HEK293 cells
T1 sequence (looked up): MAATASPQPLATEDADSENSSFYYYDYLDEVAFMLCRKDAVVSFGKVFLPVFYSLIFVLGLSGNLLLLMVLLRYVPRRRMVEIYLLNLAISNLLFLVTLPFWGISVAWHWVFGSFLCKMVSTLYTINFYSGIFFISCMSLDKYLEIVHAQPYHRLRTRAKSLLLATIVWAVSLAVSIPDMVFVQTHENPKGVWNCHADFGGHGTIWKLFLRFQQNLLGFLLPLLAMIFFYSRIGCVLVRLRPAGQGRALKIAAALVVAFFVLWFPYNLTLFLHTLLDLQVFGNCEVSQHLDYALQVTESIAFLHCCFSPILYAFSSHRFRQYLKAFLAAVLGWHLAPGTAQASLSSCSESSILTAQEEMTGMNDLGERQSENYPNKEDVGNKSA

T2: human CCR4 (human, UniProt P51679 1-360)
T2 construct: whole, on cells; transiently expressed on HEK293 cells
T2 sequence (looked up): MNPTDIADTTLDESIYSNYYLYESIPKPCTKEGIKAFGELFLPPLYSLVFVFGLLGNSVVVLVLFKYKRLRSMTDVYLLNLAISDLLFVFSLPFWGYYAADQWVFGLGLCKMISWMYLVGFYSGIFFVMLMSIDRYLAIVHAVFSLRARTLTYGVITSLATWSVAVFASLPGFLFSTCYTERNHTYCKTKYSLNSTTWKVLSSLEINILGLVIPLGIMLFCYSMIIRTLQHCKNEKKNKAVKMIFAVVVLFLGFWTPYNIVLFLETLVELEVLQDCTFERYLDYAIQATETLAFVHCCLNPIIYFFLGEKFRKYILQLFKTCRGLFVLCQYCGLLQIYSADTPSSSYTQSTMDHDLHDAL


Experiments:
human ACKR2 [1] = target: T1, human ACKR2; test: flow cytometry, HEK293 with N-term FLAG-tagged human ACKR2
Excerpt: (§1) FIGS. 4A-4F depicts the binding data of hu.Ab3.H1L1 (FIG. 4A), hu.Ab4.H1L1 (FIG. 4B), and hu.Ab5.H1L1 (FIG. 4C), as well as the commercial anti-CCR8 mAbs murine anti-human CCR8 mAb 433H (BD Biosciences) (FIG. 4D), and murine anti-human CCR8 mAb L263G8 (Biolegend) (FIG. 4E), and the humanized anti-human Yoshida anti-CCR8 mAb (FIG. 4F), to HEK293 cells that were transiently transfected with N-term FLAG-tagged plasmids encoding for human GPCRs (CCR2, CCR3, CCR4, CCR5, CCR8, CXCR4, ACKR2, and ACKR4), hCCR8 constructs, or with a mock construct using transIT X2 (reagent:DNA=3:1).
(§2) To confirm the selectivity to CCR8, the binding of hu.Ab3.H1L1, hu.Ab4.H1L1, and hu.Ab5.H1L1, as well as the Yoshida humanized anti-human CCR8, murine anti-human CCR8 mAb L263G8 (Biolegend, Commercial Ab) and murine anti-human CCR8 mAb 433H (BD Biosciences, Commercial Ab), were characterized by flow cytometry on HEK293 cells that were transiently transfected with plasmids encoding for FLAG-tagged other related human GPCRs (CCR2-5, CXCR4, ACKR2, and ACKR4). Cell surface expression of each GPCR was confirmed by staining with an anti-FLAG antibody control. […]

human CCR4 = target: T2, human CCR4; test: flow cytometry, HEK293 with N-term FLAG-tagged human CCR4
Excerpt: as §1, §2

cyno CCR8 = target: T3, cyno CCR8 (cynomolgus monkey, UniProt O97665 1-356 (rhesus entry)); test: flow cytometry on human and cyno CCR8 CHO cells
T3 construct: also called cynomolgus monkey CCR8
T3 sequence (O97665 other isoform, or with tags, fused parts or gaps): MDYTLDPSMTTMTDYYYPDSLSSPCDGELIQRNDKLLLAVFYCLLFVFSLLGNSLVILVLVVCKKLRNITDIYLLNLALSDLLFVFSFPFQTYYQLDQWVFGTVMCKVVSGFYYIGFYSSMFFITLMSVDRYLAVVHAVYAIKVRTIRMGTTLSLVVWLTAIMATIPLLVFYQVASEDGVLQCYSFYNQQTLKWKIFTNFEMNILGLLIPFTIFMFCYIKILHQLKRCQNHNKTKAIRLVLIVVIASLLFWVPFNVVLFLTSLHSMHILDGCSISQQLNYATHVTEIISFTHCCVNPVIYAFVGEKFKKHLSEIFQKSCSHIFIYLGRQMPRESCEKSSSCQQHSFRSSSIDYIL

human CCR2 = target: T4, human CCR2 (human, UniProt P41597 1-374); test: flow cytometry, HEK293 with N-term FLAG-tagged human CCR2
T4 construct: whole, on cells; transiently expressed on HEK293 cells
T4 sequence (P41597 whole entry): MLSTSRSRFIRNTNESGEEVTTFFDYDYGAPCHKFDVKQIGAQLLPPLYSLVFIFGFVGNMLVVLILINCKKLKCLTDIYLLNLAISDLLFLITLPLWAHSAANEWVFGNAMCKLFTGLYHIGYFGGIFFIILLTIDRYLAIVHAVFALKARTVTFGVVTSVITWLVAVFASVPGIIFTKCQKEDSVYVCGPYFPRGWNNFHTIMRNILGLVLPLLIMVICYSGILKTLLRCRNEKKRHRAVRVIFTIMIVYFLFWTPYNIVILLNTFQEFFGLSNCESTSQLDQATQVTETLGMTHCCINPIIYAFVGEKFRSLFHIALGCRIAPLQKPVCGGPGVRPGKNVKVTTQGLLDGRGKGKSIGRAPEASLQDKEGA
Excerpt: as §1
(§3) To confirm the selectivity to CCR8, the binding of hu.Ab3.H1L1, hu.Ab4.H1L1, and hu.Ab5.H1L1, as well as the Yoshida humanized anti-human CCR8, murine anti-human CCR8 mAb L263G8 (Biolegend, Commercial Ab) and murine anti-human CCR8 mAb 433H (BD Biosciences, Commercial Ab), were characterized by flow cytometry on HEK293 cells that were transiently transfected with plasmids encoding for FLAG-tagged other related human GPCRs (CCR2-5, CXCR4, ACKR2, and ACKR4). Cell surface expression of each GPCR was confirmed by staining with an anti-FLAG antibody control. In particular, HEK293 cells were transfected with N-term FLAG-tagged human CCR2, CCR3, CCR4, CCR5, CXCR4, ACKR2, ACKR4, hCCR8 constructs, or with a Mock construct using transIT X2 (reagent:DNA=3:1) for 24 hours, and surface stained with various anti-hCCR8 monoclonal antibodies at 5 ug/ml, or rabbit anti-Flag pAb (Sigma) followed by AF647-anti-hIgG or AF647-anti-RbIgG respectively. Antibodies hu.Ab4.H1L1, and hu.Ab5.H1L1, only stained the hCCR8-containing cells, confirming their specificity to hCCR8. […] Thus, the CCR8 selective hu.Ab4.H1L1 and hu.Ab5.H1L1 antibodies with the best ADCC activities were carried forward.

human CCR8 [2] = target: T5, human CCR8 (human, UniProt P51685 1-355); test: radioligand competition on CHO cells stably expressing human CCR8: fixed 125I-anti-CCR8 against serially diluted unlabelled antibody
T5 construct: the assay field says which; also called hCCR8; huCCR8
Method: Cell-based affinity measurements were performed using radiolabeled IgGs and CHO cell lines stably expressing human or cyno CCR8 for hu.Ab5.H13L1 and hu.Ab4.H12L3.
Briefly, stable CHO cells expressing human or cyno CCR8 were seeded in cold binding buffer (Opti-MEM+2% FBS+50 mM HEPES, pH 7.2+0.1% Sodium Azide) at 50,000 cells per well. A fixed concentration of ¹²⁵I-anti-CCR8 radiolabeled using the NEX244 Iodogen method (Perkin Elmer) was mixed with serially diluted anti-CCR8 antibodies starting at 20 nM or 50 nM. The antibody mixture was added to the cells and incubated at room temperature for 12 hours under gentle agitation. The cells and antibodies were then transferred to Millipore multiscreen filter plates. The filter plates were washed 4 times with 250 μL of cold binding buffer and dried for at least 30 minutes and the filters were punched into 5 mL polystyrene tubes. The radioactivity was measured using a Perkin Elmer Wallac Wizard 2470 Gamma Counter set at 1 count per minute with 0.8 counting efficiency. The data were fitted using the heterologous one site-fit Ki competitive binding model in GraphPad Prism.

human CCR8 [3] = target: T5, human CCR8; test: cell-based or functional assay
human ACKR2 [4] = target: T1, human ACKR2; test: flow cytometry, HEK293 with N-term FLAG-tagged human ACKR2, procedure of FIG. 4
Excerpt: as §3
To reconfirm that the Ab4 and Ab5 variants remained selective to CCR8 compared to the corresponding HIL1 variants, binding was analyzed by flow cytometry following the procedure as described for FIG. 4A and FIG. 4B. […]

binding result (human ACKR2 [1])	binding result (human CCR4)	binding result (cyno CCR8)	binding result (human CCR2)	IC50 (read off the curve) (human CCR8 [2]) [nM]	ADCC EC50, NK-92 F158 cells (FIG. 11A) (human CCR8 [3]) [nM]	ADCC EC50, NK-92 V158 cells (FIG. 11B) (human CCR8 [3]) [nM]	binding result (human ACKR2 [4])	Binder
no binding (tested: 5 ug/ml)	no binding (tested: 5 ug/ml)	binds	no binding (tested: 5 ug/ml)	–	–	–	–	hu.Ab5.H1L1 (antibody, human IgG1, kappa) heavy: not shown light: DIQVTQSPSSLSASVGDRVTITCQASENIANALAWYQQKPGKPPKFLIYGASNLASGVPSRFSGSGSGTDFTFTISSLQPEDIATYYCQQAYYGNSFVEGTFGGGTKVEIKRTVAAPSVFIFPPSDEQLKSGTASVVCLLNNFYPREAKVQWKVDNALQSGNSQESVTEQDSKDSTYSLSSTLTLSKADYEKHKVYACEVTHQGLSSPVTKSFNRGEC
–	–	–	–	~0.05	0.14	0.094	no binding (tested: 5 ug/ml)	hu.Ab5.H13L1 (antibody, human IgG1, kappa, fucosylated human IgG1; also called Ab5 variant) heavy: not shown light: DIQVTQSPSSLSASVGDRVTITCQASENIANALAWYQQKPGKPPKFLIYGASNLASGVPSRFSGSGSGTDFTFTISSLQPEDIATYYCQQAYYGNSFVEGTFGGGTKVEIKRTVAAPSVFIFPPSDEQLKSGTASVVCLLNNFYPREAKVQWKVDNALQSGNSQESVTEQDSKDSTYSLSSTLTLSKADYEKHKVYACEVTHQGLSSPVTKSFNRGEC
no binding (tested: 5 ug/ml)	no binding (tested: 5 ug/ml)	binds	no binding (tested: 5 ug/ml)	–	–	–	–	hu.Ab4.H1L1 (antibody, human IgG1, kappa, also called hu.Ab4.H1Ll) heavy: not shown light: DYQMTQSPSSLSASVGDRVTITCQASQSISSYLSWYQQKPGKRPKLLIYKASTLASGVPSRFSGSGSGTDFTLTISSLQPEDFATYYCQQGYTSSNIDNIFGGGTKVEIKRTVAAPSVFIFPPSDEQLKSGTASVVCLLNNFYPREAKVQWKVDNALQSGNSQESVTEQDSKDSTYSLSSTLTLSKADYEKHKVYACEVTHQGLSSPVTKSFNRGEC
–	–	–	–	~0.1	0.27	0.21	no binding (tested: 5 ug/ml)	hu.Ab4.H12L3 (antibody, human IgG1, kappa, fucosylated human IgG1; also called huCCR8-Ab4.H12L3.hIgG1; Ab4 variant) heavy: not shown light: DYQMTQSPSSLSASVGDRVTITCQASQSISSYLSWYQQKPGKAPKLLIYKASTLASGVPSRFSGSGSGTDFTLTISSLQPEDFATYYCQQGYTSSNIDNIFGGGTKVEIKRTVAAPSVFIFPPSDEQLKSGTASVVCLLNNFYPREAKVQWKVDNALQSGNSQESVTEQDSKDSTYSLSSTLTLSKADYEKHKVYACEVTHQGLSSPVTKSFNRGEC
